pKd: −log10 of the molar value.
Assays:
[1] = target: biotinylated human glucagon (Homo sapiens) (UniProt P01275); assay: SPR; conditions: 37 C, HBS-EP pH 7.4
[2] = target: T1, human alpha-CGRP (Homo sapiens) (UniProt P06881); assay: SPR; conditions: L-RNA, 37 C
T1 sequence: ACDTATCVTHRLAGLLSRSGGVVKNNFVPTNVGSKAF

[3] = target: T2, human C5a (Homo sapiens) (UniProt P01031); assay: SPR; conditions: L-RNA; 37 C, HBS-EP pH 7.4
T2 sequence: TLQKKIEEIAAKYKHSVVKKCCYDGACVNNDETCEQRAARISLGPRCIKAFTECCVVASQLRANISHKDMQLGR

[4] = target: biotinylated human glucagon (Homo sapiens) (UniProt P01275); assay: competition; conditions: L-DNA; competitive pull-down, 37 C, 1 mM Mg, 1 mM Ca

Sequence of biotinylated human glucagon (Homo sapiens) (P01275 53-81): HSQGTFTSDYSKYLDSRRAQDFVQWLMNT

CAGACGUGUGUGGGUAGAUGCACCUGCGAUUCGCUAAAAAGUGCCACACGUCUG [NOX-G11stabi2]
pKd ([1]; L-RNA): 7.17

CCGUGCUGUCGGAGACUACUCGUCGAGUAGAAAUAGGUCCCCUCCCACGG [226-F2-001-D44]
pKd ([2]; dC at 44, HBS-EP pH 7.4): 9.28

ACTCGAGAGGAAAGGTTGGTAAAGGTTCGGTTGGATTCACTCGAGT [259-H6-002]
pKd ([1]; L-DNA): 7.96

GCCUGAUGUGGUGGUGAAGGGUUGUUGGGUGUCGACGCACAGGC [NOX-D19001]
pKd [3]: 8.85

CCGUGCUGUCGGAGACUACUCGUCGAGUAGAAAUAGGUCCCCUCCCACGG [226-F2-001-D41/D44]
pKd ([2]; dC at 41 and 44, 13-fold improvement over parent): 9.70

CCGUGCUGUCGGAGACUACUCGUCGAGUAGAAAUAGGUCCCCUCCCACGG [226-F2-001-D41]
pKd ([2]; dC at 41, HBS-EP pH 7.4): 9.26

CCGUGCUGUCGGAGACUACUCGUCGAGUAGAAAUAGGUCCCCUCCCACGG [226-F2-001]
pKd ([2]; HBS-EP pH 7.4): 8.59

GCAGTGGGGAAATGGGAGGGCTAGGTGGAAGGAATCTGAGCTACTGC [257-E1-001]
pKd [4]: 6.73

Reference: patent publication US20140350088
